Test results reported in IntAct's records for PubMed 23911326.

B1: Metabotropic glutamate receptor 5 (Mus musculus), Q3UVX5 (parent)
chain: MVLLLILSVLLLKEDVRGSAQSSERRVVAHMPGDIIIGALFSVHHQPTVDKVHERKCGAVREQYGIQRVEAMLHTLERINSDPTLLPNITLGCEIRDSCWHSAVALEQSIEFIRDSLISSEEEEGLVRCVDGSSSFRSKKPIVGVIGPGSSSVAIQVQNLLQLFNIPQIAYSATSMDLSDKTLFKYFMRVVPSDAQQARAMVDIVKRYNWTYVSAVHTEGNYGESGMEAFKDMSAKEGICIAHSYKIYSNAGEQSFDKLLKKLRSHLPKARVVACFCEGMTVRGLLMAMRRLGLAGEFLLLGSDGWADRYDVTDGYQREAVGGITIKLQSPDVKWFDDYYLKLRPETNLRNPWFQEFWQHRFQCRLEGFAQENSKYNKTCNSSLTLRTHHVQDSKMGFVINAIYSMAYGLHNMQMSLCPGYAGLCDAMKPIDGRKLLDSLMKTNFTGVSGDMILFDENGDSPGRYEIMNFKEMGKDYFDYINVGSWDNGELKMDDDEVWSKKNNIIRSVCSEPCEKGQIKVIRKGEVSCCWTCTPCKENEYVFDEYTCKACQLGSWPTDDLTGCDLIPVQYLRWGDPEPIAAVVFACLGLLATLFVTVIFIIYRDTPVVKSSSRELCYIILAGICLGYLCTFCLIAKPKQIYCYLQRIGIGLSPAMSYSALVTKTNRIARILAGSKKKICTKKPRFMSACAQLVIAFILICIQLGIIVALFIMEPPDIMHDYPSIREVYLICNTTNLGVVTPLGYNGLLILSCTFYAFKTRNVPANFNEAKYIAFTMYTTCIIWLAFVPIYFGSNYKIITMCFSVSLSATVALGCMFVPKVYIILAKPERNVRSAFTTSTVVRMHVGDGKSSSAASRSSSLVNLWKRRGSSGETLRYKDRRLAQHKSEIECFTPKGSMGNGGRATMSSSNGKSVTWAQNEKSTRGQHLWQRLSVHINKKENPNQTAVIKPFPKSTESRGQGAGAGGGSGPGAAGAGSAGCTATGGPEPPDAGPKALYDVAEAEERFPAAARPRSPSPISTLSHLAGSAGRTDDDAPSLHSETAARSSSSQGSLMEQISSVVTRFTANITELNSMMLSTAAAPGPPGTPICSSYLIPKEIQLPTTMTTFAEIQPLPAIEVTGGAQPATGPSPAQETPAGAEAAPGKPDLEELVALTPPSPFRDSVDSGSTTPNSPVSESALCIPSSPKYDTLIIRDYTQSSSSL
partner: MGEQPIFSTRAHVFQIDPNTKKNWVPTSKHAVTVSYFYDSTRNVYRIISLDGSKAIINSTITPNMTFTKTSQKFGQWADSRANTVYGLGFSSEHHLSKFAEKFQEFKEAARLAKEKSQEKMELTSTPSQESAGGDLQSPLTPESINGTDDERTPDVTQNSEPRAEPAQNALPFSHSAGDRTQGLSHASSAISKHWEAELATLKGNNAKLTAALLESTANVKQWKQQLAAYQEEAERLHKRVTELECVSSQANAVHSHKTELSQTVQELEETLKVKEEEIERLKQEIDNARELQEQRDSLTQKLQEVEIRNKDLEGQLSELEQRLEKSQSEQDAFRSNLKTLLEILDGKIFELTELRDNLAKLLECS

Variants of: B1
Conditions: with Homer1, Q9Z214-1

effect of a mutation on the interaction | Variant
disrupting interaction strength | F1160R
